Biological target: T1, human HER2 extracellular domain, soluble, His-tagged (Homo sapiens)
T1 construct: human HER2 (ERBB2) extracellular domain, subdomains I-IV; the electron density covers amino acids 1 to 575, leaving the last 55 residues invisible; About 86 kDa, of which 17 kDa glycan; The purified His-tagged HER2 (crystals, AUC); also called HER2 ecd; soluble HER2; source: HEK293F; purified (IMAC, Superdex200) for crystals; cell culture supernatant for SPR
Experiment: AUC; multisignal sedimentation velocity (MSSV), 4:1 molar loading of HER2 to antibody (5.8:1.4 μM), PBS, 20 °C, 42,000 rpm, UV 280 and 250 nm and interference, SEDPHAT
Conditions: both partners purified

B1: anti-HER2 fully human mAb 39S (IgG1κ) (antibody, V domains shown)
VH: EVQLVESGGGLVKPGGSLRLSCAASGFTFSSYSMSWVRQAPGKGLEWVSSISSSSSYIYYADSVKGRFTISRDNAKNSLYLQMNSLRAEDTAVYYCARGGDAYNYYYFDYWGQGTLVTVSS
VL: DIVMTQTPLSLSVTPGQPASISCKSSQSVFFRSNNKNILAWYLQKPGQPPQLLIYWASSRESGVPDRFSGSGSGTDFTLKISRVEAEDVGVYYCQQYFGSPFTFGPGTKVDIK
notes: variable domain of the 39S heavy chain; as in the heavy chain of m1 (PDB 6ATT); human IgG1 heavy chain constant region (its CH1 is also in the heavy chain of PDB 6ATT); whole kappa light chain of 39S; as the light chain of m1 (PDB 6ATT); IgG1 kappa, about 148 kDa; also called 39S mAb; Antibody 39S
- stoichiometry N: 2 HER2 per 39S mAb

Reference: publication PMC5986207, “Structural insights into the mechanism of action of a biparatopic anti-HER2 antibody” (The Journal of Biological Chemistry, 2018)
